This is an account of results in US20200116725.

The test system of data set [1] is P220 MMP9-cleavable peptide, Biotin-GGGGGGGGGGPLGVRGKGGC
For data set [2], the system named is P213 MMP9-cleavable peptide, Biotin-GGGPLGVRGKGGC
For data set [3], the system named is P120 thrombin-cleavable peptide, Biotin-GGGSGGGSGGfPRSGGGGGC
Data set [4] relates to P113 thrombin-cleavable peptide, Biotin-SGGfPRSGGSGGC

MMP9 (Active, Human, Recombinant, PF140, Merck Millipore), sequence (chain, as listed by the source): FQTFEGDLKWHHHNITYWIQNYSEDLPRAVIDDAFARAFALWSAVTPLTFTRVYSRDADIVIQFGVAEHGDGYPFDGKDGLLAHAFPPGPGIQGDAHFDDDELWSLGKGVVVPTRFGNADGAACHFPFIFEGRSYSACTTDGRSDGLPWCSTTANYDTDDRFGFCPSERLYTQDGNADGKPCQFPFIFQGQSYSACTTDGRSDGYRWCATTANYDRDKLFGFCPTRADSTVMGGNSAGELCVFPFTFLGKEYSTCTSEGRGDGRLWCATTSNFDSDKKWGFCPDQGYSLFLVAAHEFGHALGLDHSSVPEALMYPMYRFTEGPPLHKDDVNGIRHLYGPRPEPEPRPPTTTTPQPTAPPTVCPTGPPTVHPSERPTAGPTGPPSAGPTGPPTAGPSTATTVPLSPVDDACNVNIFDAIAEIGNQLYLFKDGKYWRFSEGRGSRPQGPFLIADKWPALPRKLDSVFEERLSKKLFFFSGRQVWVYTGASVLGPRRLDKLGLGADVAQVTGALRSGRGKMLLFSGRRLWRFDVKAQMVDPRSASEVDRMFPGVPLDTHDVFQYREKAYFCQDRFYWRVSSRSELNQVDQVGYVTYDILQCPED
P120 thrombin-cleavable peptide, Biotin-GGGSGGGSGGfPRSGGGGGC, sequence (chain, as listed by the source): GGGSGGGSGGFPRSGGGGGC

Regarding “MMP9 (Active, Human, Recombinant, PF140, Merck Millipore)”, in data set [1], the “% Cleavage (free AuNC fraction: 7-12 mL), gel filtration chromatography with catalytic activity readout; AuNC-P220-NAv + MMP7/9/13 (12 h)” value is recorded as “MMP9: 54.9%”; the “% Cleavage (free AuNC fraction: 7-12 mL), gel filtration chromatography with catalytic activity readout; AuNC-P220-NAv + MMP9 (12 h)” value is given as 75.1%; the “fraction of AuNCs cleaved from AuNC-P220-NAv within 1 h, FCS, 50 nM MMP9” value was 80% AuNCs are cleaved within the first hour of incubation with MMP9; the “rate of cleavage by FCS (linear region, 50 nM MMP9), AuNC-P220-NAv complex” value turned out to be 3% AuNC cleaved per minute. In data set [2], the “fraction of AuNCs cleaved from AuNC-P213-NAv within 1 h, FCS, 50 nM MMP9” value was “only 20% AuNCs are cleaved from the AuNC-P213-NAv complex” and the “rate of cleavage by FCS (linear region, 50 nM MMP9), AuNC-P213-NAv complex” value is “only 0.08% AuNC cleaved per minute”. Also, the “% Cleavage (free AuNC fraction: 7-12 mL), gel filtration chromatography with catalytic activity readout; AuNC-P120-NAv + MMP9 (12 h)” value in data set [3] was determined as 7.1%.
In the case of “MMP13 (Active, Human, Recombinant, 444287)”, the “% Cleavage (free AuNC fraction: 7-12 mL), gel filtration chromatography with catalytic activity readout; AuNC-P220-NAv + MMP7/9/13 (12 h)” value in data set [1] was “MMP13: 29.8%”.
With “thrombin from human plasma (T7009, Sigma)”, in data set [1], the “% Cleavage (free AuNC fraction: 7-12 mL), gel filtration chromatography with catalytic activity readout; AuNC-P220-NAv + THR (12 h)” value is listed as 5.5%. Besides, the “% Cleavage (free AuNC fraction: 7-12 mL), gel filtration chromatography with catalytic activity readout; AuNC-P113-NAv + THR (12 h)” value in data set [4] stood at 21.8%. In data set [3], the “% Cleavage (free AuNC fraction: 7-12 mL), gel filtration chromatography with catalytic activity readout; AuNC-1:5-P120-NAv + THR (1 h), ca. 20 biotin ligands per AuNC” value was 49.6%; the “% Cleavage (free AuNC fraction: 7-12 mL), gel filtration chromatography with catalytic activity readout; AuNC-1:20-P120-NAv + THR (1 h), ca. 5 biotin ligands per AuNC” value stood at 89.9%; the “% Cleavage (free AuNC fraction: 7-12 mL), gel filtration chromatography with catalytic activity readout; AuNC-P120-NAv + THR (12 h)” value came to 90.2%.
